Residue numbers refer to the chain shown, from its start. Names may count otherwise.
B1: bx9 w/t: wild type Zea mays bx9 glucosyl transferase, C-terminally his-tagged SEQ ID NO: 1 (protein)
chain: MASSRTGAGAGGRVVVFPFPFQGHFNPVMRLARALHARGLAITVFHSGALDPADYPADYRFVPVTVEADPKLLASEDIAAIVTTLNASCDAPFRARLSALLAAEGRDSVRCVFTDVSWNAVLTASSDLGVPALGMMTASAASLRDYMAYRTLIDKGYLPVKEERKEDPVPELPPYLVKDLLRVDTSDLEEFAELLARTVTAARRASGLIFNTFPLIETDTLAEIHKALSVPVFAVAPLNKLVPTATASLHGVVQADRGCLQWLDTQQPGSVLYVSFGSMAAMDPHEFVELAWGLADSKRPFVWVVRPNLIRGFESGALPDGVEDEVRGRGIVVAWAPQEEVLAHPAVGGFLTHNGWNSTVEAISEGVPMVCCPRHGDQFGNMRYVCDVWKVGTELVGEQLERGQVKAAIDRLFGTKEGEEIKERMKEFKIAAAKGIGIGVDVDETASPRTDLTDLVDLIKSF
modifications: C-terminal His tag; Zea mays
B2: A432L: bx9 SEQ ID NO:1 mutant (protein)
chain: B1 chain with A432L
modifications: Zea mays
B3: S117G, M279W, E339A: mutant combination of bx9 SEQ ID NO:1 (protein)
chain: B1 chain with S117G, M279W, E339A
modifications: Zea mays
B4: S117G, M279W, E339V: mutant combination of bx9 SEQ ID NO:1 (protein)
chain: B1 chain with S117G, M279W, E339V
modifications: Zea mays
B5: M279F, E339A, H375Y: mutant combination of bx9 SEQ ID NO:1 (protein)
chain: B1 chain with M279F, E339A, H375Y
modifications: Zea mays
B6: M279F, H375Y: mutant combination of bx9 SEQ ID NO:1 (protein)
chain: B1 chain with M279F, H375Y
modifications: Zea mays
B7: M279W, H375Y: mutant combination of bx9 SEQ ID NO:1 (protein)
chain: B1 chain with M279W, H375Y
modifications: Zea mays
B8: M279F, H375F: mutant combination of bx9 SEQ ID NO:1 (protein)
chain: B1 chain with M279F, H375F
modifications: Zea mays
B9: S117G: bx9 SEQ ID NO:1 mutant (protein)
chain: B1 chain with S117G
modifications: Zea mays
B10: M135V: bx9 SEQ ID NO:1 mutant (protein)
chain: B1 chain with M135V
modifications: Zea mays
B11: M279W: bx9 SEQ ID NO:1 mutant (protein)
chain: B1 chain with M279W
modifications: Zea mays
B12: A334E: bx9 SEQ ID NO:1 mutant (protein)
chain: B1 chain with A334E
modifications: Zea mays
B13: A334T: bx9 SEQ ID NO:1 mutant (protein)
chain: B1 chain with A334T
modifications: Zea mays
B14: A334C: bx9 SEQ ID NO:1 mutant (protein)
chain: B1 chain with A334C
modifications: Zea mays
B15: A432P, M279F: double mutant of bx9 SEQ ID NO:1 (protein)
chain: B1 chain with M279F, A432P
modifications: Zea mays
B16: I78Y: bx9 SEQ ID NO:1 mutant (protein)
chain: B1 chain with I78Y
modifications: Zea mays
B17: I81Y (protein)
chain: B1 chain with I81Y
modifications: Zea mays
B18: I81L (protein)
chain: B1 chain with I81L
modifications: Zea mays
B19: S117I: bx9 SEQ ID NO:1 mutant (protein)
chain: B1 chain with S117I
modifications: Zea mays
B20: S117V: bx9 SEQ ID NO:1 mutant (protein)
chain: B1 chain with S117V
modifications: Zea mays
B21: M136F (protein)
chain: B1 chain with M136F
modifications: Zea mays
B22: L143W (protein)
chain: B1 chain with L143W
modifications: Zea mays
B23: L143F (protein)
chain: B1 chain with L143F
modifications: Zea mays

Assay: UDP luminescence plate assay of E. coli extracts, mutants of SEQ ID No: 1, 2 mM metribuzin
Format: biochemical, Zea mays
Settings: for luminescence signal with metribuzin: H24A null background 1.00E+05 not subtracted; for SIGNAL: metribuzin signal of mutant divided by the signal of w/t bx9: relative to bx9 w/t; for luminescence signal in the DMSO control: mutants of SEQ ID No: 1, DMSO in place of metribuzin (background UDP-glucose hydrolysis); for luminescence signal observed with 2 mM metribuzin: mutants of SEQ ID No: 1 in E. coli extracts, UDP luminescence; for RATIO of the metribuzin signal to the DMSO signal: 2 mM metribuzin vs DMSO control, same mutant
Experimental: Optionally plate assays are stopped with brief heating to 95 C before returning to ice and addition of UDP-Glo detection reagent followed by incubation at lab temperature. […] In addition a UDP standard curve is run alongside each set of plate tests.
Assays were carried out on extracts of E. coli BL21 DE3 expressing the various C-terminally his-tagged library variants of SEQ ID NO:1 at the amino acid positions listed in Table 11 as described in Example 2 except, in this case, with 2 mM metribuzin in place of herbicide V.
Thus the ratio of the metribuzin to DMSO signal as well as the increase in signal relative to the w/t bx9 is used to help distinguish those mutations most likely to offer the highest activity to metribuzin. A follow up assay monitored by, for example, LC MS is one method to distinguish these cases more quantitatively.

| Molecule | SIGNAL: metribuzin signal of mutant divided by metribuzin signal of w/t bx9 (2 mM metribuzin) | luminescence signal with metribuzin (2 mM metribuzin) | SIGNAL: metribuzin signal of mutant divided by the signal of w/t bx9 (2 mM metribuzin) | luminescence signal in the DMSO control | luminescence signal observed with 2 mM metribuzin (2 mM metribuzin) | factor of increased signal relative to the bx9 w/t control signal (first parentheses) (2 mM metribuzin) | ratio of activity with metribuzin relative to activity with DMSO (second parentheses) (2 mM metribuzin) | further results |
| --- | --- | --- | --- | --- | --- | --- | --- | --- |
| B1 | 1.00 | 1.23E+05 | 1.00 | 2.76E+05 | 2.80E+05 |  |  | UDP-Glo luminescence signal (2 mM metribuzin, 5 ul diluted extract, 40 minutes, DMSO control ~2.3E6, H24A ~1.7E6): ~3.4 E6 |
| B2 |  |  |  |  |  | 6 | 1.30 |  |
| B3 |  |  |  |  |  | 5.0 | 6.5 |  |
| B4 |  |  |  |  |  | 7.5 | 5.0 |  |
| B5 |  |  |  |  |  | 7.5 | 7.0 |  |
| B6 |  |  |  |  |  | 5.0 | 6.0 |  |
| B7 |  |  |  |  |  | 4.0 | 5.0 |  |
| B8 |  |  |  |  |  | 5.0 | 4.0 |  |
| B9 | 1.26 | 1.56E+05 | 1.07 | 2.41E+05 | 3.00E+05 |  |  |  |
| B10 | 1.18 | 1.46E+05 |  |  |  |  |  | RATIO: metribuzin signal to DMSO signal (2 mM metribuzin): 0.97 |
| B11 | 1.14 | 1.41E+05 | 1.26 | 2.09E+05 | 3.51E+05 |  |  |  |
| B12 | 1.25 | 1.54E+05 |  |  |  |  |  | RATIO: metribuzin signal to DMSO signal (2 mM metribuzin): 0.96 |
| B13 | 1.25 | 1.54E+05 |  |  |  |  |  | RATIO: metribuzin signal to DMSO signal (2 mM metribuzin): 0.95 |
| B14 | 1.13 | 1.39E+05 |  |  |  |  |  | RATIO: metribuzin signal to DMSO signal (2 mM metribuzin): 0.94 |
| B15 | 1.68 | 2.08E+05 | 2.52 | 2.75E+05 | 7.06E+05 |  |  |  |
| B16 |  |  | 1.23 | 3.27E+05 | 3.44E+05 |  |  |  |
| B17 |  |  | 0.90 | 2.25E+05 | 2.53E+05 |  |  | RATIO of the metribuzin signal to the DMSO signal: 1.12 |
| B18 |  |  | 0.67 | 1.68E+05 | 1.87E+05 |  |  | RATIO of the metribuzin signal to the DMSO signal: 1.11 |
| B19 |  |  | 1.99 | 5.14E+05 | 5.56E+05 |  |  |  |
| B20 |  |  | 1.18 | 3.38E+05 | 3.30E+05 |  |  |  |
| B21 |  |  | 0.93 | 2.57E+05 | 2.59E+05 |  |  | RATIO of the metribuzin signal to the DMSO signal: 1.00 |
| B22 |  |  | 0.97 | 2.42E+05 | 2.72E+05 |  |  | RATIO of the metribuzin signal to the DMSO signal: 1.12 |
| B23 |  |  | 1.23 | 3.18E+05 | 3.45E+05 |  |  | RATIO of the metribuzin signal to the DMSO signal: 1.09 |

— patent US20200270588A1, “GLUCOSYL TRANSFERASE POLYPEPTIDES AND METHODS OF USE” (Syngenta Participations AG, priority 2017, published 2020)
